In publication PMC3063405:

What was measured:
[1] = biological target: T1, PUM2-HD (Pumilio-homology domain) (Homo sapiens, UniProt Q8TB72 706-1056); assay: EMSA
[2] = biological target: T2, PUM1-HD (Pumilio-homology domain) (Homo sapiens, UniProt Q14671 828-1176); assay: EMSA
[3] = biological target: T1, PUM2-HD (Pumilio-homology domain); assay: crystal structure
[4] = biological target: T2, PUM1-HD (Pumilio-homology domain); assay: crystal structure

T2 sequence (Q14671 828-1176): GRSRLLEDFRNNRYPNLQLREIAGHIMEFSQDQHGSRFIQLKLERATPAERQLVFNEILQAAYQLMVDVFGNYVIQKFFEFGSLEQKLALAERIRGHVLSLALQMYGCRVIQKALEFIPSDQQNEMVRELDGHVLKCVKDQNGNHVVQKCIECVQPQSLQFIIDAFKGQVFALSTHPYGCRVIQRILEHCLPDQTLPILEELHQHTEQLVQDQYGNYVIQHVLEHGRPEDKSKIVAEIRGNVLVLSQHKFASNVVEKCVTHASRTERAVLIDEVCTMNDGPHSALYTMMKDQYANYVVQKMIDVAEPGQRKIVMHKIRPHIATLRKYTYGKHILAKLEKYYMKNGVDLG
T1 sequence (Q8TB72 706-1056): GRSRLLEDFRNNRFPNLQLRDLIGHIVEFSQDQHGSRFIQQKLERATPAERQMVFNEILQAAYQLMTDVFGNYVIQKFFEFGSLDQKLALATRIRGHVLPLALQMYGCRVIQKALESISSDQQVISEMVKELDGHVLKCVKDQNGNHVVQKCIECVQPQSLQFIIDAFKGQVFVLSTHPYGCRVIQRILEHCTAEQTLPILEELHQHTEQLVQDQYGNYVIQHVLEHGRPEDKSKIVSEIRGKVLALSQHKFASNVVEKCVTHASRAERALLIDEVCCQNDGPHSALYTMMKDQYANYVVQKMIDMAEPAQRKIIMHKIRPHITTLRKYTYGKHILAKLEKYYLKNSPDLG

Binder	Kd [1]	Kd [2]	binding result [3]	binding result [4]
UGUAAAUA (ssRNA) [p38α NREa]	0.17 ± 0.02 nM	0.91 ± 0.08 nM	–	–
UGUACAUC (ssRNA) [erk2 NRE]	–	–	binds	binds
UGUAGAUA (ssRNA) [p38α NREb]	0.08 ± 0.01 nM	0.63 ± 0.01 nM	–	–
UGUAUAUA (ssRNA) [hb NRE1]	0.36 ± 0.02 nM	0.4 ± 0.01 nM	–	–
UGUACAUA (ssRNA) [hb NRE2]	0.07 ± 0.01 nM	1.01 ± 0.05 nM	–	–
